Experimental data taken from the supplement of paper PMC11246515.
± gives the standard deviation of the averaged measurements.

Assay: total protein half-life in vivo (active degradation + dilution); higher = more stable protein
[1] = E. coli NCM3722 delta-clpP delta-lon delta-hslV, growth: N-lim chemostat, doubling time 6 h
[2] = E. coli NCM3722 delta-clpP, growth: N-lim chemostat, doubling time 6 h
[3] = E. coli NCM3722 delta-hslV, growth: N-lim chemostat, doubling time 6 h
[4] = E. coli NCM3722 delta-smpB, growth: N-lim chemostat, doubling time 6 h
[5] = wild type E. coli NCM3722, growth: C-lim chemostat, doubling time 3 h
[6] = wild type E. coli NCM3722, growth: C-lim chemostat, doubling time 6 h
[7] = wild type E. coli NCM3722, growth: C-lim chemostat, doubling time 12 h
[8] = wild type E. coli NCM3722, growth: N-lim chemostat, doubling time 6 h
[9] = wild type E. coli NCM3722, growth: N-lim chemostat, doubling time 12 h
[10] = wild type E. coli NCM3722, growth: P-lim chemostat, doubling time 6 h
[11] = wild type E. coli NCM3722, growth: P-lim chemostat, doubling time 12 h
[12] = E. coli NCM3722 delta-lon, growth: N-lim chemostat, doubling time 6 h

Sequence | total protein half-life in vivo [1] [h] | total protein half-life in vivo [2] [h] | total protein half-life in vivo [3] [h] | total protein half-life in vivo [4] [h] | total protein half-life in vivo [5] [h] | total protein half-life in vivo [6] [h] | total protein half-life in vivo [7] [h] | total protein half-life in vivo [8] [h] | total protein half-life in vivo [9] [h] | total protein half-life in vivo [10] [h] | total protein half-life in vivo [11] [h] | total protein half-life in vivo [12] [h]
MKIGIIGAMEEEVTLLRDKIENRQTISLGGCEIYTGQLNGTEVALLKSGIGKVAAALGATLLLEHCKPDVIINTGSAGGLAPTLKVGDIVVSDEARYHDADVTAFGYEYGQLPGCPAGFKADDKLIAAAEACIAELNLNAVRGLIVSGDAFINGSVGLAKIRHNFPQAIAVEMEATAIAHVCHNFNVPFVVVRAISDVADQQSHLSFDEFLAVAAKQSSLMVESLVQKLAHG [P0AF12] | 4.9 ± 0.49 | 4.39 ± 0.069 | 4.42 ± 0.2 | 5.43 ± 0.68 | 3.27 ± 0.28 | 6.36 ± 0.19 | 12.6 ± 1.4 | 4.85 ± 0.48 | 8.24 ± 0.78 | 5.73 ± 0.097 | 12.1 ± 0.39 | –
MMITLRKLPLAVAVAAGVMSAQAMAVDFHGYARSGIGWTGSGGEQQCFQTTGAQSKYRLGNECETYAELKLGQEVWKEGDKSFYFDTNVAYSVAQQNDWEATDPAFREANVQGKNLIEWLPGSTIWAGKRFYQRHDVHMIDFYYWDISGPGAGLENIDVGFGKLSLAATRSSEAGGSSSFASNNIYDYTNETANDVFDVRLAQMEINPGGTLELGVDYGRANLRDNYRLVDGASKDGWLFTAEHTQSVLKGFNKFVVQYATDSMTSQGKGLSQGSGVAFDNEKFAYNINNNGHMLRILDHGAISMGDNWDMMYVGMYQDINWDNDNGTKWWTVGIRPMYKWTPIMSTVMEIGYDNVESQRTGDKNNQYKITLAQQWQAGDSIWSRPAIRVFATYAKWDEKWGYDYTGNADNNANFGKAVPADFNGGSFGRGDSDEWTFGAQMEIWW | 6.61 | > 8 | – | 6.71 ± 0.23 | 3.38 ± 0.6 | 6.85 ± 1.6 | > 16 | > 8 | > 16 | 7.548 ± 0.042 | > 16 | –
MTMYATLEEAIDAAREEFLADNPGIDAEDANVQQFNAQKYVLQDGDIMWQVEFFADEGEEGECLPMLSGEAAQSVFDGDYDEIEIRQEWQEENTLHEWDEGEFQLEPPLDTEEGRAAADEWDER | – | 6.11 | 3.33 | 3.22 ± 0.1 | 2.35 ± 0.29 | 3.94 ± 0.066 | 6.75 ± 1.1 | 3.33 ± 0.17 | 4.03 | 3.9 ± 0.2 | 7.26 | 3.3 ± 0.71
MNFPLIANIVVFVVLLFALAQTRHKQWSLAKKVLVGLVMGVVFGLALHTIYGSDSQVLKDSVQWFNIVGNGYVQLLQMIVMPLVFASILSAVARLHNASQLGKISFLTIGTLLFTTLIAALVGVLVTNLFGLTAEGLVQGGAETARLNAIESNYVGKVSDLSVPQLVLSFIPKNPFADLTGANPTSIISVVIFAAFLGVAALKLLKDDAPKGERVLAAIDTLQSWVMKLVRLVMQLTPYGVLALMTKVVAGSNLQDIIKLGSFVVASYLGLLIMFAVHGILLGINGVSPLKYFRKVWPVLTFAFTSRSSAASIPLNVEAQTRRLGVPESIASFAASFGATIGQNGCAGLYPAMLAVMVAPTVGINPLDPMWIATLVGIVTVSSAGVAGVGGGATFAALIVLPAMGLPVTLVALLISVEPLIDMGRTALNVSGSMTAGTLTSQWLKQTDKAILDSEDDAELAHH | 5.42 ± 0.17 | 4.76 ± 0.058 | 5.07 ± 0.26 | 5.38 ± 0.78 | 3.35 ± 0.46 | 6.36 ± 1.8 | 11.4 ± 2 | 4.95 ± 1.1 | 8.91 ± 0.48 | 5.29 ± 0.62 | 7.43 ± 0.75 | 5 ± 0.65
MRLTAKQVTWLKVCLHLAGLLPFLWLVWAINHGGLGADPVKDIQHFTGRTALKFLLATLLITPLARYAKQPLLIRTRRLLGLWCFAWATLHLTSYALLELGVNNLALLGKELITRPYLTLGIISWVILLALAFTSTQAMQRKLGKHWQQLHNFVYLVAILAPIHYLWSVKIISPQPLIYAGLAVLLLALRYKKLRSLFNRLRKQVHNKLSV | – | – | – | – | – | – | – | – | 8.91 | – | – | –
MSEFDAQRVAERIDIVLDILVAGDYHSAIHNLEILKAELLRQVAESTPDIPKAPWEI [A5A614] | > 8 | – | – | 2.71 | – | 3.77 ± 0.23 | – | – | – | 3.58 | – | –
MESLNQFVNSLAPKLSHWRRDFHHYAESGWVEFRTATLVAEELHQLGYSLALGREVVNESSRMGLPDEFTLQREFERARQQGALAQWIAAFEGGFTGIVATLDTGRPGPVMAFRVDMDALDLSEEQDVSHRPYRDGFASCNAGMMHACGHDGHTAIGLGLAHTLKQFESGLHGVIKLIFQPAEEGTRGARAMVDAGVVDDVDYFTAVHIGTGVPAGTVVCGSDNFMATTKFDAHFTGTAAHAGAKPEDGHNALLAAAQATLALHAIAPHSEGASRVNVGVMQAGSGRNVVPASALLKVETRGASDVINQYVFDRAQQAIQGAATMYGVGVETRLMGAATASSPSPQWVAWLQSQAAQVAGVNQAIERVEAPAGSEDATLMMARVQQHQGQASYVVFGTQLAAGHHNEKFDFDEQVLAIAVETLARTALNFPWTRGI | 6.21 ± 1.1 | 2.65 ± 0.05 | 3.12 ± 0.28 | 2.86 ± 0.093 | 1.71 ± 0.65 | 5.22 | 5.67 ± 0.081 | 2.9 ± 0.053 | 4.45 ± 0.16 | 1.87 | 6.79 | 3.18 ± 0.22
MKNIRYIDKKDVENLIENKISDDVIIFLSGPTSQKTPLSVLRTKDIIAVNGSAQYLLSNNIVPFIYVLTDVRFLHQRRDDFYKFSQRSRYTIVNVDVYEHASKEDKLYILQNCLVLRSFYRREKGGFIKKIKFNILRQIHKELLISVPLSKKGRLVGFCKDISLGYCSCHTIAFAAIQIAYSLKYARIICSGLDLTGSCSRFYDENKNPMPSELSRDLFKILPFFRFMHDNVKDINIYNLSDDTAISYDVIPFIKLQDISAEESKDMTRKKMQYRTSTDSYAN | 5.01 ± 0.085 | 4.65 ± 0.19 | – | 3.714 ± 0.0057 | 1.67 ± 0.44 | 1.52 ± 0.34 | 1.73 ± 0.45 | 3.52 | 6.11 ± 0.77 | 1.84 ± 0.14 | 4.15 ± 0.71 | 3.32 ± 0.14
